# Reference: paper PMC7990167, “An antibody targeting type III secretion system induces broad protection against Salmonella and Shigella infections” (PLoS Neglected Tropical Diseases, 2021)
# Where “and” joins values, the source holds several entries; their conditions need not be identical. Equal entries are not always repeated.
# Molecular target: T1, IpaD (wild type, Shigella flexneri) expressed on the surface of yeast cells (Shigella flexneri, gene synthesized …, UniProt P18013)
# T1 construct: IpaD of Shigella flexneri; also called wild-type IpaD; needle tip protein of the Shigella type III secretion system
# T1 sequence (P18013 whole entry): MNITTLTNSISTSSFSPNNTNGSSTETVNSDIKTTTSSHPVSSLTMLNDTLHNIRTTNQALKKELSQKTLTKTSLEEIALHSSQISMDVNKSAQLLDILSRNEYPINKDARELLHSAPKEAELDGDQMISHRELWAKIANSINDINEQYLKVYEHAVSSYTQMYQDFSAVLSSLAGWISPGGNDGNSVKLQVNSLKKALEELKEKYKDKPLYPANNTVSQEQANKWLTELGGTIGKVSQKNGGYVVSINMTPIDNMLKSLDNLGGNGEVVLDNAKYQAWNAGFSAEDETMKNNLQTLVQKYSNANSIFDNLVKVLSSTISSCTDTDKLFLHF
# Test: flow cytometry on cells; wild-type IpaD on the surface of yeast cells, increasing concentrations of the VHH, fluorescence by FACS; apparent KD, one site-specific binding model (PRISM)
# Settings: one partner purified
binder,measurement,value
"VHH-20ipaD (VHH, the VHH chain is in the complex IpaD/VHH-20ipaD, PDB 5VXM; Monomeric fractions of the gel filtration were pooled; source: E. coli BL21, purified (TEV cleavage, HisTrap flow-through, gel filtration)) VHH: QVQLVESGGGLVQAGGSLRLSCAVSGLEMQSHAIGWFRQAPGKEREGVSCINDDGSTTRYADSVKGRFTISRDNAKNTVYLQMNSLKPEDTAVYFCAAKSVWFCSVIRSHEFNSWGQGTQVTVSS",Kd,1.16 nM and 1.15 nM
